The experiment has as its target medusavirus major capsid protein (medusavirus). In words: cryo-EM structure; purified medusavirus particles (DNA-empty and DNA-full) assembled in infected amoebae, in PBS; single particle analysis with block-based reconstruction of fivefold, threefold and twofold blocks, 7.3-9.9 Å; AlphaFold2 model of the MCP fitted into the map.

Broadly, the stoichiometry N is the number of molecules, sites or subunits per partner or assembly.

On to “medusavirus major capsid protein (natural protein)”, for which the stoichiometry N was determined as 3.

For the origin of these results see paper PMC11406985.
